Test results: PMC7125077, “In TFIIH the Arch domain of XPD is mechanistically essential for transcription and DNA repair” (Nature Communications, 2020)

Target: human XPD, wild type (XPD-FLAG) (human, UniProt P18074 1-760)
Assay: cell-based or functional assay

B1: human CDK activating kinase complex (CAK), wild type: MAT1 / CDK7-Strep / Cyclin H (complex)
chain 1: MDDQGCPRCKTTKYRNPSLKLMVNVCGHTLCESCVDLLFVRGAGNCPECGTPLRKSNFRVQLFEDPTVDKEVEIRKKVLKIYNKREEDFPSLREYNDFLEEVEEIVFNLTNNVDLDNTKKKMEIYQKENKDVIQKNKLKLTREQEELEEALEVERQENEQRRLFIQKEEQLQQILKRKNKQAFLDELESSDLPVALLLAQHKDRSTQLEMQLEKPKPVKPVTFSTGIKMGQHISLAPIHKLEEALYEYQPLQIETYGPHVPELEMLGRLGYLNHVRAASPQDLAGGYTSSLACHRALQDAFSGLFWQPS
chain 2: MALDVKSRAKRYEKLDFLGEGQFATVYKARDKNTNQIVAIKKIKLGHRSEAKDGINRTALREIKLLQELSHPNIIGLLDAFGHKSNISLVFDFMETDLEVIIKDNSLVLTPSHIKAYMLMTLQGLEYLHQHWILHRDLKPNNLLLDENGVLKLADFGLAKSFGSPNRAYTHQVVTRWYRAPELLFGARMYGVGVDMWAVGCILAELLLRVPFLPGDSDLDQLTRIFETLGTPTEEQWPDMCSLPDYVTFKSFPGIPLHHIFSAAGDDLLDLIQGLFLFNPCARITATQALKMKYFSNRPGPTPGCQLPRPNCPVETLKEQSNPALAIKRKRTEALEQGGLPKKLIF
chain 3: MYHNSSQKRHWTFSSEEQLARLRADANRKFRCKAVANGKVLPNDPVFLEPHEEMTLCKYYEKRLLEFCSVFKPAMPRSVVGTACMYFKRFYLNNSVMEYHPRIIMLTCAFLACKVDEFNVSSPQFVGNLRESPLGQEKALEQILEYELLLIQQLNFHLIVHNPYRPFEGFLIDLKTRYPILENPEILRKTADDFLNRIALTDAYLLYTPSQIALTAILSSASRAGITMESYLSESLMLKENRTCLSQLLDIMKSMRNLVKKYEPPRSEEVAVLKQKLERCHSAELALNVITKKRKGYEDDDYVSKKSKHEEEEWTDDDLVESL
in vitro transcription of TFIIH reconstituted from rIIH6, CAK and XPD, % of wild type: 100%
